Test results from paper PMC11472067.

Molecular target: histone H2B tagged to mCherry (H2B-mCh) (UniProt P06899)
Assay: FRET or BRET; phasor FLIM-FRET in live HeLa nuclei; donor eGFP-HP1α or eGFP-HP1α_(I165E) (stable, endogenous HP1α knocked down), acceptor H2B-mCh transiently transfected; fraction of pixels exhibiting FRET read as chromatin binding

Row | Substance | fraction of pixels exhibiting FRET (chromatin binding)
1 | eGFP tagged to wild type HP1α (eGFP-HP1α) (from UniProt P45973 1-191) (natural protein) | 20%
2 | eGFP tagged to HP1α dimer mutant I165E (eGFP-HP1α_(I165E)) (from UniProt P45973 1-191) (natural protein) | 11%
